This passage reports Kd results from PMC2944808.

Read-outs that look alike come from different tables or passages of the source.

The target in assay [1] is BMP2 (Homo sapiens) (UniProt P12643). Particulars: cited from earlier work.
For assay [2], the target named is Chordin, full-length, mouse (mouse) (UniProt Q9Z0E2). The assay is described as follows: SPR; BIAcore 2000; Chordin immobilised, CV2 proteins perfused; apparent KD from koff/kon; 6 to 9 analyte concentrations, at least three independent experiments. (In general: In SPR one partner is held on a chip, and binding of the other changes the refractive index at the surface.)
Sequence of Chordin, full-length, mouse (mouse) (Q9Z0E2 27-948): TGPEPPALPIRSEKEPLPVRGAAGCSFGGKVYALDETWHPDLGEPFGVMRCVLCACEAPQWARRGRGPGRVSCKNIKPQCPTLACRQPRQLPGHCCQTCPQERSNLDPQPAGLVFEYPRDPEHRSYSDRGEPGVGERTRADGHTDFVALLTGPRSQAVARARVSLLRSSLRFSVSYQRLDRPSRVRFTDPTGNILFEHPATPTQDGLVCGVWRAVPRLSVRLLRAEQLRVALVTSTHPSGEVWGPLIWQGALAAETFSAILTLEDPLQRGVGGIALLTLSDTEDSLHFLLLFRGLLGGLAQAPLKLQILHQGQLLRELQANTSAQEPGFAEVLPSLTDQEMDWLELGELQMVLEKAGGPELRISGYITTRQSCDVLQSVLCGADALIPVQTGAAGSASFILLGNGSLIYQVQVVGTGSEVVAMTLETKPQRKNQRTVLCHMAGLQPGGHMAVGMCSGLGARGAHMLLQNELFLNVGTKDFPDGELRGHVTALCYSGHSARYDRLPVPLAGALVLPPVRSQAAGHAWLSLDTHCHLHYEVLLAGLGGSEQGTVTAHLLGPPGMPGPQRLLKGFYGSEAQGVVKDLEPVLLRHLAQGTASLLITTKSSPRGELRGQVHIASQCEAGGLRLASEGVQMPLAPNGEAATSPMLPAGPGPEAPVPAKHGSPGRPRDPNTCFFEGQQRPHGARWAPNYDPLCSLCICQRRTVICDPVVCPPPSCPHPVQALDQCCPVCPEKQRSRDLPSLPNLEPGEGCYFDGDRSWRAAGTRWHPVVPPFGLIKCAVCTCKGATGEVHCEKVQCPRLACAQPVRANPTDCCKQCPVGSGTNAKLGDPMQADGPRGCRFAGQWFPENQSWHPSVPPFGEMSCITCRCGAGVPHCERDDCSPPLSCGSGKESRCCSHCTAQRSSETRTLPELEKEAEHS

For assay [3], the target named is VWC2 domain of Chordin, mouse (mouse). Description: SPR; BIAcore 2000; VWC2 domain of Chordin immobilised, CV2 proteins perfused; apparent KD from koff/kon; 6 to 9 analyte concentrations, at least three independent experiments.
The target of assay [4] is BMP2 (Homo sapiens) (UniProt P12643). The assay is described as follows: SPR; BIAcore 2000; BMP2 immobilised, CV2 proteins perfused; apparent KD from koff/kon; 6 to 9 analyte concentrations, at least three independent experiments.
Assay [5] addresses Crossveinless-2 (CV2), full-length, zebrafish (zebrafish). The assay is described as follows: SPR; BIAcore 2000; CV2 immobilised on the chip (legend of Figure 1E: CV2-N), Chordin (50-600 nM) or Chordin VWC2 (10-120 nM) in solution; apparent KD.

Sequence of BMP2 (Homo sapiens) (P12643 283-396): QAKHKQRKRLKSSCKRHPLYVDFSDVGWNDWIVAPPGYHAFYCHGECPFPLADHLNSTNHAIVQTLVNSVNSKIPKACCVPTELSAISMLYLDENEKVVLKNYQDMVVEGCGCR
Sequence of Chordin (Q9H2X0 27-955): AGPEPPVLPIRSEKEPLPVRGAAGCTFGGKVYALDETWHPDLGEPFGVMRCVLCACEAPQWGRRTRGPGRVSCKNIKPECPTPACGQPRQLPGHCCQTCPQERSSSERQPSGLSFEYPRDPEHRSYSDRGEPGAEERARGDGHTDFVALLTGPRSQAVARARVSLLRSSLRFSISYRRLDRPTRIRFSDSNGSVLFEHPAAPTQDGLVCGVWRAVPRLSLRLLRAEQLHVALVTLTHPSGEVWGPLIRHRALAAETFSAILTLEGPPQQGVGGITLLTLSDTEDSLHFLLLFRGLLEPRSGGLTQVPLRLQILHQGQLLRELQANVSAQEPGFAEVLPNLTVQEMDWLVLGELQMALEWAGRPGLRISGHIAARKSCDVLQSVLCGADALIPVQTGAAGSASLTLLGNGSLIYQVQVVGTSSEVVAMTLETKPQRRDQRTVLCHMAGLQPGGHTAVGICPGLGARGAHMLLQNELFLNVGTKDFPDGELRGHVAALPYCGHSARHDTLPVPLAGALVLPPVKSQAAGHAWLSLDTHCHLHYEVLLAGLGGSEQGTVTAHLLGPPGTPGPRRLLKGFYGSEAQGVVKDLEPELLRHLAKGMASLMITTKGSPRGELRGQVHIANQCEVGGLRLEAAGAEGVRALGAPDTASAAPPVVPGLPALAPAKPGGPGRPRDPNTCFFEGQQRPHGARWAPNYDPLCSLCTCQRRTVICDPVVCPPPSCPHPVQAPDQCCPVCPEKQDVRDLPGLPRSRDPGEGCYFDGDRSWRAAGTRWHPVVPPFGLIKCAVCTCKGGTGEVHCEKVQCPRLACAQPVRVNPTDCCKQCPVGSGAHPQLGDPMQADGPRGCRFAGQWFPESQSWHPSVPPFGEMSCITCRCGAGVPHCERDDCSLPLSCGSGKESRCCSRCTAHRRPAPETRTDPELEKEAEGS

On to Chordin (from UniProt Q9H2X0), for which, in the assay with BMP2 (Homo sapiens) [1], the Kd was 20 nM.
For the substance CV2 ΔClip-SD1 (domain or fragment), the Kd in assay [2] worked out at 188 nM; in assay [3], 170 nM.
On to CV2-VWC1-5 (CV2-N) (domain or fragment), for which the figures for the Kd (in the assay with BMP2 (Homo sapiens) [4]; in assay [2]; in assay [3]) were 25 nM, 170 nM and 140 nM, respectively.
In the case of CV2-VWC1-3 (domain or fragment), the Kd with BMP2 (Homo sapiens) [4] came to 24 nM.
“VWC2 domain of Chordin, mouse (domain or fragment)”: the Kd in assay [5] was found to be 5 nM.
CV2 T5P/I21R (natural protein): the figures for the Kd (in the assay with BMP2 (Homo sapiens) [4]; in assay [2]; in assay [3]) were 18000 nM, 183 nM and 172 nM, respectively.
For “Crossveinless-2 (CV2), full-length, zebrafish (natural protein)”, in that order: 22 nM, 175 nM and 150 nM.
CV2 ΔSD2 (domain or fragment): the Kd in the assay with BMP2 (Homo sapiens) [4] was determined as 22 nM.
